Measured values reported in the supplement of paper PMC12042874.
± gives the uncertainty stated by the source.

assay: amyloid nucleation score (Sup35N fusion, yeast selection) (log enrichment); library NNK3; higher = more nucleation; inactive = no reads after selection
Summary of the method: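 Output and input plasmid inserts were sequenced by Illumina after psi-negative yeast carrying Sup35N fused to peptides of 20 random codons had been induced 24 hours with 100 μM copper sulfate and grown 7 days at 30°C on medium lacking adenine and uracil. The nucleation score is the DiMSum log enrichment of output over input reads, centred on the mode score of non-aggregating sequences. Sequences with under 100 input reads were excluded.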

Row | Substance | amyloid nucleation score
1 | MRMVTSCTISF | inactive
2 | MRSNMFSRAGNYGQSIKELT | inactive
3 | MRSRGTLHYATDSLWSLGEP | inactive
4 | MRTMISYMVRVVRTHTCFLD | inactive
5 | MSCICGKPTAVCI | inactive
6 | MSDWLDELVGSPMSKREVCR | inactive
7 | MSELWWAPSFKYQLFSHFIK | inactive
8 | MSKARFRWSDNTDPFFSVGQ | 0.196 ± 0.51
9 | MSLPSSSQAYSCRWTWPRPA | inactive
10 | MSSACGWEEVIGCLEVMRIG | inactive
11 | MSTLEMHYGPSFSCLYNMQD | 1.89 ± 0.065
12 | MSVYRYSKAVYARIEFTSRS | inactive
13 | MSYINRAPFAMSGLFCAWFD | inactive
14 | MTDDRWLRRRVSPCSVRRFS | inactive
15 | MTFTCFVRFPTVRYNAKGCL | inactive
16 | MTRVYLMNFVLQLASTSQDS | 2.54 ± 0.065
17 | MTVPTCHNDASARLMLRLLG | inactive
18 | MTVTGPQYLPWGLRHNA | inactive
19 | MTWGSNFSDNGYKLEIMCYQ | inactive
20 | MVFEKGFSTNNRHGGHLDEQ | inactive
21 | MVFSAICITHFTKI | inactive
22 | MVGAPDV | inactive
23 | MVGGVHCLSSVLRRWAAGRR | -0.676 ± 1.7
24 | MVKCQWGFRL | 1.33 ± 0.12
25 | MVKGGKDHSSVGPC | inactive
26 | MVKLCALSCSIALDPIQTFK | 0.426 ± 0.19
27 | MVLGMYKQ | inactive

Row | Substance | amyloid nucleation score
28 | MVLRVLNYFINFCATVLAGS | inactive
29 | MVLYRFCIVIHWTCTV | inactive
30 | MVNTKTISYWPKDSQHLRV | inactive
31 | MVQRSMKARILFCKVNFLCA | 1.16 ± 0.15
32 | MVRFMLFMK | inactive
33 | MVVYKNYM | inactive
34 | MWKDLVVCL | 0.175 ± 0.88
35 | MYEVVRVKYMVAQQFNISSE | inactive
36 | MYGLHLNPALITVYFRGKGL | -0.018 ± 0.34
37 | MYRLVGHLTIHVVMVLAQWW | inactive
38 | MYVYSYQVYNLTCARLAKK | inactive
39 | MYYSSYR | inactive
40 | NACVNEWRPKCQVSWGGPSF | -0.385 ± 0.93
41 | NADTYNRSDEKMTGRYWDRR | inactive
42 | NARHFIRYATFCCQYASRCG | 0.928 ± 0.18
43 | NASNHSVSTRCVVDRG | inactive
44 | NATIKIFTTIISDYQFGMR | 0.152 ± 0.3
45 | NAYCPPSLCVKRLYLFRMTK | inactive
46 | NCCCLYP | 1.71 ± 0.091
47 | NCDCSIAEPESILRFESPRE | inactive
48 | NCFMRLMVFAKRVIGCLQPP | 0.15 ± 0.43
49 | NCKMWRYKVESNCPGMICRC | inactive
50 | NCMELLWCCSCSSVICVMHH | 2.96 ± 0.07
51 | NCRGPCFKSKCSLIPRYTFV | inactive
52 | NCRVMEISIGKAKQSWNFVM | inactive
53 | NCYNQYRSSWRLTCCLF | 3.34 ± 0.064
54 | NDASPLFSKGVLDFLSTKSL | inactive

Row | Substance | amyloid nucleation score
55 | NDASVLRNSPELSESFRGKW | inactive
56 | NDGLAQSNIEIKDYRCRQNY | inactive
57 | NDHLSCVRMVLHSMGCHKWS | -0.181 ± 0.88
58 | NDIMKTCFFNTYAYHLSVVM | inactive
59 | NDMFRVSCSQNSESQYNLNG | inactive
60 | NDNIDPTRVIQ | inactive
61 | NDTFVY | inactive
62 | NDYCPLYIGHVGRFHPAKDV | inactive
63 | NELGEIAYGCGFRVVCRCMR | inactive
64 | NFCFDSPLIFPDCQLG | inactive
65 | NFFWFYWIWKSSGGYTGWLL | inactive
66 | NFGQNCN | -0.48 ± 0.57
67 | NFGRAQSNACAENVFAIERG | inactive
68 | NFMYTWKRSMFYSNCKH | inactive
69 | NFQVDNVGSYS | inactive
70 | NFSMCINRNKVPCVHLLDTL | inactive
71 | NFSTRTGIITIGFCRVCGMR | 1.97 ± 0.096
72 | NFTRPLSWNYLR | inactive
73 | NFVRRHWRWRGMSFSLVNSY | inactive
74 | NFVVKCICWAYFPHVDGFYF | inactive
75 | NFWFCLISYCESFSMISERG | inactive
76 | NGFGSNNVGSGERLADVAVI | inactive
77 | NGFRI | inactive
78 | NGKLVFCWDKFIYVYRLTWW | inactive
79 | NGLRRSVLGLRL | inactive
